This is an account of results in the DeepSol protein solubility set.

This data set in a line: soluble on expression in E. coli; label from the status in PepcDB or PDB records.
As for “MGSDKIHHHHHHMNREVFITCAVTGSGGSQDRSPHVPRSPKQIADSAIDAAKAGAAIVHCHVRDPETGKPRRDVHLYREVTERIRDANVDVVLNLTAGMGGDMVFGSPEAPLPLNEKGTDMGGATNRMEHVRQCLPEICTLDCGTMNFAEADYVMTNTPGMLRAMGGMMTALGVKPEIEAFDTGHLWFAKQLVEEKVLNPDALVQLCMGVPWGAPDDLNTFMAMVNNVPSTWNWSAFAIGRNQMAYAAAAVLAGGNVRVGLEDNLWLDKGVLATNAQLVERAASIVTNLGARILGPEEVRKKLNLTKRAPIAAAA”, the “soluble on expression in E. coli” value is given as “not soluble”. For the sequence “MGSDKIHHHHHHMNREVVIVGGGPAGMLMGLLLAKEKIQVTVLEKNTTFNRDFRGETIAPGSVFLLKKLGVFKALEEHGFIKVQKIKMYDREEKLFSVNFDDFNHPQKFGIDIPQPVVLEALKQKASSYPNFEYIHGATCTDLIKDGEKVVGIRYSKEKEEHQIKCRLVIGAEGRFSRLRTLGHFAVEKKEFSRDLIWFKVPKPEGWEEGNLIKVYKHDHVIILPTYPNDLRVGTYIYLGGNRETKAKGIAAFIDKVCMIEPRLRKPMEKHIKSWDDTTLLKIFTAHVDQWAKDGLILIGDAAHTLSPILGQGVNIAMQDAFELLPYVNSGLKTYEGPLPAHHFDDYISKRKKQVSFVAGFQERQEQNLAASTPFQCMLRKVKMKLLDKAPFKIKVMKKLQYGVVANETTEGLT”, the “soluble on expression in E. coli” value was “not soluble”. In the case of “MGSDKIHHHHHHMNRGCFDIAVITDREAFQAILDEWNQLADINGYYTPWFCWEWFDLCLRHGETRALHILMVRSGGSLVAVAPFTVRSERYKGVVPARILSSIGGNRSPLKGIVFGDADENMQREVTTLVLEYLRTTFKNWDILELEPVAGSNDGNSIETLIERQGLSFRSYISCANRYCDVADASFDGFFERLPQSTRKDINYCRRRLEKNGSLVFQIITDAASLDQCLDVYDAVRAKSWKAAEKDREFNRELMHVAAGKGWLRLGILSYDGTPIAVQKWIVANGRAYIYDVLYDEEYKKHSPGKILTSMMFQHAIDNERVAYVDYLRGDEPYKEEWTPSLRNRIGIEAYNKSVLGCTASILMKKILPLVKKNTDSTNAHK” it was “not soluble”. Regarding “MGSDKIHHHHHHMNRQVIEFSKYNPSGNMTILVHSKHDASEYASIANQLMAATHVCCEQVGFIESTQNDDGNDFHLVMSGNEFCGNATMSYIHHLQESHLLKDQQFKVKVSGCSDLVQCAIHDCQYYEVQMPQAHRVVPTTINMGNHSWKALEIIYETYVHYVIPVKQVTTEIQHLVEAFVREQQWSHKYKTVGMMLFDEQRQFLQPLIYIPEIQSLIWENSCGSGTASIGVFNNYQRNDACKDFTVHQPGGSILVTSKRCHQLGYQTSIKGQVTTVATGKAYIE”, the “soluble on expression in E. coli” value is given as “not soluble”. With “MGSDKIHHHHHHMNRRDFLKSALITGAALGLPAGMDPLLTVLKAAERPDLAVVRGTPPAAITRAAIDSLGGMKRFVSRGDVVVVKPNIGWDRTPEYAANTNPEVVGAVVRLCFEAGAKQVKVFDRPVNDPRRTYRQSGIAAAASALGASVLFTDSRKFKDMRINGSSLKSWPLYTEVFEADKVINIPIAKTHGTSKLTLGMKNWMGVMGGWRGRIHQRIDESLVDLATFIKPTLTILDAVRILTDNGPQGGNLADVRRLNMVIAGTDAVAVDAFGATLFGMKPAELGFVRIGHQRRLGSMDLAGMNIRRITL”, the “soluble on expression in E. coli” value was “not soluble”.

For “MGSDKIHHHHHHMNRSTRSHKAIVIFSGGQDSTTCLFQAIQEFKRENVEVITFQYGQRHSIELEKAAWIAQNLGIKQTVIDTSVIKAITTNALITEATIKQDGDKPNTFVDGRNALFLLYTAIYAKGQGIQTIFTGVCETDFSGYPDCRDIFIKSMNVTLNLAMDYNFNIRTPLMYLTKKQTWALADQLGAFEYVREHTHTCYLGVEGGCHTCPSCLLREKGLNEYLAEKSGEKNV”, the “soluble on expression in E. coli” value is reported as “not soluble”.

Regarding “MGSDKIHHHHHHMNSALYVGKVRHRRFTPVTHRFDYALFMALIDLDEIPALPHAGIALERFAPASFYRGDYLGGGDIKTKAQDRIAELTGERLTGKVLLLCQLRYLGCYFNPVNFYYLYDEHNQLRWLLAEVRNTPWNERHTYAVVPDGSTTVSKAFHVSPFNPMDMVYHWRLTPPVERLRIHIENHRQGREFDATLLLHRQPLTRAALRKQLWSLPLMTIKIACTIYWQALKLWIKRSPVYPHPQSGRKDNP”, the “soluble on expression in E. coli” value was “not soluble”. Regarding “MGSDKIHHHHHHMNSGPVSVACAQGSHGGDVVRLAARLGISPTDILDFSSNANSLCDDLTRQVLAQTGYAHSHYPDSECTGLRHRIAGFEETQPERILAGNGSSELIYLAMHSLKPRRVLLIAPVFSEYVRACQACGADYRLFETDPYDGFDIPERHICRLHDAVTAYRPDMAVICAPSNPACTDYSRMDDILYALDCPHVLVDNSYLDFLWGTPAYSRHGMAAYAGCTRTETKVISLRSMTKFFYCTGVRLGYCHADEQTIERMNRCKTPWSVWHAAQQAGMAFLDRMDEYRLRLPAMRAEKTAFAGALRNTGIFDNNLVLEGANFVTARLQRPAKAATVYTELLQHGILVRLCDNIPGMPQGFIRMQVREKKAWSRLTAILGTLDAE”, the “soluble on expression in E. coli” value is “not soluble”. With “MGSDKIHHHHHHMNSLLASIDSSRAMPVLEDITQHEISALKTRFNLADAHTHQDQSDTQRMIVASLPELWYQAQNQTQYQSEQAFIRAFFTFHGQHHALKRHDEIYLVYAASIAMHITATYLRKNTLSVGLIEPCFDNLHDLLKHMEVPMSPLDESLFSSSSEVYANLQKAAIGLDAIFLVDPNNPTGSSLFADGPDTFVEVARYCRDYNKLLILDFCFASFFMAAGRERVDAYAILDDIGTRYLIMEDTGKTWPLQDTKCATLMASKDINAEIYSIVTSVLLNVSPFILNVVTRYIEDSNDDDFNSVRSVLEVNRRRARDCLEGKVLKYMQPMIDTSVAWFEILPAGIDADELQTYLLQWDVYVLPGKYFYWSQPEKGQRYIRLALARKPEEFDAAVQMIAHALEHFHV”, the “soluble on expression in E. coli” value is “not soluble”. For “MGSDKIHHHHHHMNSLQFPRHGDKENSAFFEEYLVKLLEERDAMGLTAMVHEIDALMITVDPGHSVKYVAELCFMTSYHYLVTLESESHWTHVLRIDLDSPDLLVREVKDPNLRGIFRSLNEIYPVGARKPNSRYMGEIIRVNNLHDVVKLQQEREFRFFTQDEVRKLELPGNLAVSKPSPYTHNIVAYLERKPDEMRVYSLGVSRVDAELQMAYEAAKRLQEKLNFADLLLPIDHLATRVYSQNREVAILEYLSWSSYYFWGAYNIFDQNSSTNVTKSAHGLPESKSPAKVFTANNTPYFVNHLEKLPSPTETFVRNYGPRLHHIAVAVRDGERDGLEHIEFAVNAIASQGKGFLLDVIGSREEGLKQIFSNASEHSSLIVEYVQRFGDFQGFFTKENVAVLTEAAGREEGVKSGASLG”, the “soluble on expression in E. coli” value is “not soluble”. Regarding “MGSDKIHHHHHHMNSNPFVSVVMSVYNGGEFLKDAINSILSQSYKNFEFIIINDGSSDNFSEILELYDDERIKVLNNQENKGLVYSLNRGLLESIGKYIVRMDADDISLPNRIEKQVEFMEREPEVGVCGSYIEIFGDTIKRKVQRFPSNVNVNEAFLLFSTCLAHPSVIIRKSIVDKYKLRYDDRYLHAEDYAIWCQAVKYTKISNIREVLLKYRILESSVTRQANKNFQSRFDVHKSIYKDIFRNKGIDYTEKELYLHFIISDNNRFRNQALTIRPSEINAHLTKILSHYRGASNYKYIAFLVNKRGLSLSRWYSESRGFYFIMYLFKFLYYKIQIKK”, the “soluble on expression in E. coli” value is “not soluble”. With “MGSDKIHHHHHHMNTIHSCVLQIHLTIETKMADTKAIQQLDLNLLKIFEALYSEQNMTLASKSLFITPSAVSHAIKRLRLVLNDPLFVRQGLQMQPTAACQRMAPQLISALNRIRQVLQQCGEFDPLTTEQTFKIAIHEALESQIMPTLIKQVVKLIPHAKIASMSLSRENIARQLANGEVDLAIDVARAVNAPLAHKTLLSDPFCVLIDRRQHAMHLEPSTKLTPTDYANAEHVAVSSRPIGRVMEDILLQQQGVNRHIKYRCQSYQTAAKIVIGSPLMLTLPRSIAEQFIHPDLHVCTMPFELPDIDTHLYWHMNTETDPAFVWLRAQIEMAIIAE”, the “soluble on expression in E. coli” value is “not soluble”. In the case of “MGSDKIHHHHHHMNTLLKQLKPYPFARLHEAMQGISAPEGMEAVPLHIGEPKHPTPKVITDALTASLHELEKYPLTAGLPELRQACANWLKRRYDGLTVDADNEILPVLGSREALFSFVQTVLNPVSDGIKPAIVSPNPFYQIYEGATLLGGGEIHFANCPAPSFNPDWRSISEEVWKRTKLVFVCSPNNPSGSVLDLDGWKEVFDLQDKYGFIIASDECYSEIYFDGNKPLGCLQAAAQLGRSRQKLLMFTSLSKRSNVPGLRSGFVAGDAELLKNFLLYRTYHGSAMSIPVQRASIAAWDDEQHVIDNRRLYQEKFERVIPILQQVFDVKLPDASFYIWLKVPDGDDLAFARNLWQKAAIQVLPGRFLARDTEQGNPGEGYVRIALVADVATCVKAAEDIVSLYR”, the “soluble on expression in E. coli” value is given as “not soluble”. Take “MGSDKIHHHHHHMNTNTSITIQKPKTDELLLWNLLFADTGRQVLLVAYDIKLFPLLSQKPCTLAEICNELKIFQRPAEAILAVLASIELLEIENNYYSLTLLAKDYLVKSSPTYFGALLEMMIFDERKHISSFDSLKKSLFTNNYPGKKVMESLVKNHDFMRTITFGNNVKLIRGFISSMHGPSMAAALIWPELIDLSEYKLFIDIGGGSAAHSIGATLKWPNLQAVVLELPTVCEIAQEFITHYGLQNRIATQEFDMWSDTFPVGDLHFYSAVYHHWQQEKCQVITKKSFNSLLPGGRIILHEMLFNEQKTGPFPVAAKNLNISLKLGGQQYSGQELSMMLEQAGFIDIEIKPASSYWSIITGRKP”: the “soluble on expression in E. coli” value was “not soluble”. In the case of “MGSDKIHHHHHHMNTVTIIGCGWFGLPLATQLVKQGIKVKASKRHPEDLVQLQQAGVDAYQLNLANVNSQAKNSSLFDADAIVINLPPGLRRGETDYLGYLTQLITLMGEHQYQKIIFISTTGVYPSLDQTVTEQDAAAFNDTSRTLLQAEAMFSAMKNSCIVRFSGLVGPKRHPGRFFAGKTDVSGANVAVNLVHLDDCIAAVSLILSRNDTLPIYNLAANAHPTRGEFYVAAAEHLGLTAPEFNQQQQPNKTIDGQLICHHLGFTYAFNNPFKMLDAC”, the “soluble on expression in E. coli” value is “not soluble”. With “MGSDKIHHHHHHMNTYFDNATSSYPKPDAMRQALAYFYDVPVGSYGRSRDRETLRVTSEVEELRDALADLIGVSESAHICFADNATTGINTILRGSLQAGCSVLVSPMEHNAVMRPLQCLADTIGLKIALMPSMPDGRVDTDRLVSAIPTDTALAVVNLESNVNGLVQPIEEIARLLTQERGIPILADATQYLGTSRLKADELGLAYVAFTGHKGLLGPSGTGGFYIRDPRSVHPLTTGGNGLHSADWTVGVEMPERFMAGTVNVLGLTALLASVRQLPPFRISRDAWKQCMQQMQRFPGLRVYGAADPIEQGYLCSLTHDRLTPARIGDALYEAFDIVTRTGIHCAPLAHRSIGTFATGTVRLSLSPYHEEADLEYLLNALSHVLRS”, the “soluble on expression in E. coli” value is “not soluble”. As for “MGSDKIHHHHHHMNVTTSTLADGREIIYFDDHELREGERVLHDSRDLPHTQPLSEIRHDPLTNTWVAYAAHRMNRTFMPPANENPLAPTTPGNLPTEIPSPTYDVVVFENRFPSFSMNIAVGEDWESYVDGIDLYPRRPALARCEVVCFTPDVDKSFKDLPVSRIRTVINAWAHRTEALSALSGVQQVFPFENRGEEIGVTLQHPHGQIYSYPFLSPRLQAIVQSAQYYAETHDGHDLFDAIIREESAVQTRVIERTEHFIVFVPAAAKWPVEAMVMPLRAVADFTELTDVERDDLAALLKRLYTAVDSFFEGVTKTPYIAGWTQAPVDPALRPFGRLHLQLFSLMRSPNRMKFLAGSESSQGVWINDTTPERIAQRFKEVWPHATLD”, the “soluble on expression in E. coli” value is “not soluble”.
